Laboratory results: patent US20260116991A1 (HAINAN SIMCERE ZAIMING PHARMACEUTICAL, published 2026)

Key:
[1] = molecular target: T1, GPC3 on HepG2 cells (human, UniProt P51654 25-554); experiment: FACS on HepG2 cells
T1 construct: whole, on cells; also called glypican-3
Protocol: The desired cells were expanded to a logarithmic growth phase in a T-75 cell culture flask, the medium was removed by pipetting, and the cells were washed twice with a PBS buffer, and digested with trypsin. Then a complete medium was added to stop the digestion, and the cells were blown into a single cell suspension. After counting, the cells were centrifuged, and the cell pellet was resuspended with an FACS buffer (PBS+2% fetal bovine serum) to 2×10⁶ cells/mL. The cell resuspension solution was added to a 96-well FACS reaction plate at 50 μl/well, and a humanized antibody sample to be tested was added at 50 μl/well for incubation at 4° C. for 1 h. […] After the plate was centrifuged and washed 3 times with a PBS buffer, 100 μl of the resulting solution was assayed and analyzed by FACS (FACS Canto™, purchased from BD Biosciences). Data analysis was performed by software (FlowJo) to obtain the mean fluorescence intensity (MFI) of the cells. Then, analysis was performed by software (GraphPad Prism8), data were fitted, and EC₅₀ values were calculated.

[2] = molecular target: T2, monkey GPC3-His protein (monkey); experiment: ELISA, monkey GPC3-His coated; antibody 0.28 nM
T2 construct: Bought protein; also called monkey GPC3 protein
Protocol: (§1) The specific method is described as follows: The antigen protein was diluted with PBS to a final concentration of 1 μg/mL, and the diluent was added to a 96-well ELISA plate at 50 μL/well. The plate was sealed with a plastic film and incubated at 4° C. overnight, washed twice with PBS the next day, and a blocking solution [PBS+2% (w/w) BSA] was added for blocking at room temperature for 2 h. […] After incubation at 37° C. for 2 h, the plate was washed 3 times with PBS. A horseradish peroxidase (HRP)-labeled secondary antibody (purchased from Merck, Cat. No. AP113P) was added for incubation at 37° C. for 1 h, and the plate was washed 5 times with PBS. A TMB substrate was added at 50 μL/well for incubation at room temperature for 10 min, then a stop solution (1.0M HCl) was added at 50 μL/well.

[3] = molecular target: T2, monkey GPC3-His protein; experiment: ELISA, monkey GPC3-His coated; antibody 1.39 nM
Protocol: as §1

[4] = molecular target: T2, monkey GPC3-His protein; experiment: ELISA, monkey GPC3-His coated; antibody 6.94 nM
Protocol: as §1

[5] = molecular target: T2, monkey GPC3-His protein; experiment: ELISA, monkey GPC3-His coated; antibody 0.002 nM
Protocol: as §1

[6] = molecular target: T2, monkey GPC3-His protein; experiment: ELISA, monkey GPC3-His coated; antibody 0.011 nM
Protocol: as §1

[7] = molecular target: T2, monkey GPC3-His protein; experiment: ELISA, monkey GPC3-His coated; antibody 0.056 nM
Protocol: as §1

[8] = molecular target: T2, monkey GPC3-His protein; experiment: ELISA, monkey GPC3-His coated; antibody 34.72 nM
Protocol: as §1

[9] = molecular target: T2, monkey GPC3-His protein; experiment: ELISA, monkey GPC3-His coated; antibody 0.0004 nM
Protocol: as §1

[10] = molecular target: T3, murine GPC3-his protein (murine, UniProt Q8CFZ4 25-558, limits assumed); experiment: ELISA, murine GPC3-his coated; antibody 0.02 nM
T3 construct: Bought protein; also called mouse GPC3 protein; murine GPC3 protein; not shown: His tag

[11] = molecular target: T3, murine GPC3-his protein; experiment: ELISA, murine GPC3-his coated; antibody 0.11 nM
Protocol: as §1

[12] = molecular target: T3, murine GPC3-his protein; experiment: ELISA, murine GPC3-his coated; antibody 0.53 nM
Protocol: as §1

[13] = molecular target: T3, murine GPC3-his protein; experiment: ELISA, murine GPC3-his coated; antibody 2.67 nM
Protocol: as §1

[14] = molecular target: T2, monkey GPC3-His protein; experiment: ELISA, monkey GPC3-His coated; antibody 0.02 nM
Protocol: as §1

[15] = molecular target: T2, monkey GPC3-His protein; experiment: ELISA, monkey GPC3-His coated; antibody 0.11 nM
Protocol: as §1

[16] = molecular target: T2, monkey GPC3-His protein; experiment: ELISA, monkey GPC3-His coated; antibody 0.53 nM
Protocol: as §1

[17] = molecular target: T2, monkey GPC3-His protein; experiment: ELISA, monkey GPC3-His coated; antibody 2.67 nM
Protocol: as §1

[18] = molecular target: T3, murine GPC3-his protein; experiment: ELISA, murine GPC3-his coated; antibody 0.004 nM
Protocol: as §1

[19] = molecular target: T3, murine GPC3-his protein; experiment: ELISA, murine GPC3-his coated; antibody 13.33 nM
Protocol: as §1

[20] = molecular target: T3, murine GPC3-his protein; experiment: ELISA, murine GPC3-his coated; antibody 66.66 nM
Protocol: as §1

[21] = molecular target: T2, monkey GPC3-His protein; experiment: ELISA, monkey GPC3-His coated; antibody 0.004 nM
Protocol: as §1

[22] = molecular target: T2, monkey GPC3-His protein; experiment: ELISA, monkey GPC3-His coated; antibody 13.33 nM
Protocol: as §1

[23] = molecular target: T2, monkey GPC3-His protein; experiment: ELISA, monkey GPC3-His coated; antibody 66.66 nM
Protocol: as §1

[24] = molecular target: T3, murine GPC3-his protein; experiment: ELISA, murine GPC3-his coated; antibody 0.0008 nM
Protocol: as §1

[25] = molecular target: T2, monkey GPC3-His protein; experiment: ELISA, monkey GPC3-His coated; antibody 0.0008 nM
Protocol: as §1

T3 sequence (Q8CFZ4 25-558 limits assumed): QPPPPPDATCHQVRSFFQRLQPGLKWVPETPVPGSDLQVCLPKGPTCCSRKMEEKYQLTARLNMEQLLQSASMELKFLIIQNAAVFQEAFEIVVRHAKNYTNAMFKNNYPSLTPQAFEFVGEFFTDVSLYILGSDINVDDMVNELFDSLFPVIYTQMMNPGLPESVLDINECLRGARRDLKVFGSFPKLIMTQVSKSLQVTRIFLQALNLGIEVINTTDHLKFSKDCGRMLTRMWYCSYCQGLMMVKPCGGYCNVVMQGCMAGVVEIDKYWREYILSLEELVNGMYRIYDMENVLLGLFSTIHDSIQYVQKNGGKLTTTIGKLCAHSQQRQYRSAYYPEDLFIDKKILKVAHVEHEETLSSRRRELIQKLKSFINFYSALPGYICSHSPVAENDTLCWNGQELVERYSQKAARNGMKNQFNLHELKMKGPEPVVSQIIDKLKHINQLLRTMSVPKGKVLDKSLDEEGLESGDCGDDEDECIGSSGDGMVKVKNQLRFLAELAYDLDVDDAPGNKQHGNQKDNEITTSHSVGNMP

Row | Binder | EC50 [1] | Max MFI [1] | OD450 nm [2] | OD450 nm [3] | OD450 nm [4] | OD450 nm [5] | OD450 nm [6] | OD450 nm [7] | OD450 nm [8] | OD450 nm [9] | OD450 nm [10] | OD450 nm [11] | OD450 nm [12] | OD450 nm [13] | OD450 nm [14] | OD450 nm [15] | OD450 nm [16] | OD450 nm [17] | OD450 nm [18] | OD450 nm [19] | further results
1 | hAb006LH3L1c (antibody, human IgG1, V domains shown, Humanized F3.38.7, H3+L1c) VH: EVQLVQSGAEVKKPGSSVKVSCKASGYTFTDYEIHWVRQAPGQGLEWMGAIDPKTGNTAYNQKFMGRVTLTADKSTSTAYMELSSLRSEDTAVYYCTRYFSFAYWGQGTLVTVSS VL: DIVMTQTPLSLPVTPGEPASISCRSSQTFVHSNRNTYLQWYLQKPGQSPQLLIYKVSNRFSGVPDRFSGSGSGTDFTLKISRVEAEDVGVYYCFQGSHVPYTFGQGTKLEIK | 0.417 nM | 3520 | 1.24 | 1.32 | 1.33 | 0.122 | 0.332 | 0.876 | 1.26 | 0.071 | – | – | – | – | – | – | – | – | – | – | –
2 | hAb006LH3L1d (antibody, human IgG1, V domains shown, Humanized F3.38.7, H3+L1d) VH: EVQLVQSGAEVKKPGSSVKVSCKASGYTFTDYEIHWVRQAPGQGLEWMGAIDPKTGNTAYNQKFMGRVTLTADKSTSTAYMELSSLRSEDTAVYYCTRYFSFAYWGQGTLVTVSS VL: DIVMTQTPLSLPVTPGEPASISCRSSQTFVHSNSNTYLQWYLQKPGQSPQLLIYKVSNRFSGVPDRFSGSGSGTDFTLKISRVEAEDVGVYYCFQGSHVPYTFGQGTKLEIK | 0.772 nM | 3500 | 1.1 | 1.28 | 1.29 | 0.121 | 0.308 | 0.719 | 1.3 | 0.068 | – | – | – | – | – | – | – | – | – | – | –
3 | hAb006LH3L1e (antibody, human IgG1, V domains shown, Humanized F3.38.7, H3+L1e) VH: EVQLVQSGAEVKKPGSSVKVSCKASGYTFTDYEIHWVRQAPGQGLEWMGAIDPKTGNTAYNQKFMGRVTLTADKSTSTAYMELSSLRSEDTAVYYCTRYFSFAYWGQGTLVTVSS VL: DIVMTQTPLSLPVTPGEPASISCRSSQTFVHSNVNTYLQWYLQKPGQSPQLLIYKVSNRFSGVPDRFSGSGSGTDFTLKISRVEAEDVGVYYCFQGSHVPYTFGQGTKLEIK | 1.01 nM | 2780 | 1.14 | 1.07 | 1.22 | 0.114 | 0.24 | 0.67 | 1.26 | 0.066 | – | – | – | – | – | – | – | – | – | – | –
4 | hAb001H2L1a (antibody, human IgG1, V domains shown, Humanized F2.169.2, H2+L1a) VH: EVQLVESGGGLVQPGGSLRLSCAASGFSFNTNAMNWVRQAPGKGLEWVGRIRSKSNNYATYYADSVKDRFTISRDDSKSSLYLQMNSLKTEDTAVYYCVRDGYYVLFAYWGQGTLVTVSS VL: DIVMTQTPLSLPVTPGEPASISCRFSQSIVNSDGNTYLEWFLQKPGQSPQLLIYKVSNRFSGVPDRFSGSGSGTDFTLKISRVEAEDVGVYYCFQGSHVPFTFGQGTKLEIK | – | – | – | – | – | – | – | – | – | – | 0.664 | 1.59 | 2.19 | 2.35 | 0.34 | 1.13 | 2.02 | 2.25 | 0.191 | 2.41 | OD450 nm [20]: 2.48; OD450 nm [21]: 0.094; OD450 nm [22]: 2.34; OD450 nm [23]: 2.22; OD450 nm [24]: 0.094; OD450 nm [25]: 0.063
5 | hAb001H2L1b (antibody, human IgG1, V domains shown, Humanized F2.169.2, H2+L1b) VH: EVQLVESGGGLVQPGGSLRLSCAASGFSFNTNAMNWVRQAPGKGLEWVGRIRSKSNNYATYYADSVKDRFTISRDDSKSSLYLQMNSLKTEDTAVYYCVRDGYYVLFAYWGQGTLVTVSS VL: DIVMTQTPLSLPVTPGEPASISCRFSQSIVNSNANTYLEWFLQKPGQSPQLLIYKVSNRFSGVPDRFSGSGSGTDFTLKISRVEAEDVGVYYCFQGSHVPFTFGQGTKLEIK | – | – | – | – | – | – | – | – | – | – | 1.09 | 2.06 | 2.38 | 2.44 | 0.865 | 1.93 | 2.54 | 2.45 | 0.407 | 2.58 | OD450 nm [20]: 2.64; OD450 nm [21]: 0.317; OD450 nm [22]: 2.47; OD450 nm [23]: 2.58; OD450 nm [24]: 0.199; OD450 nm [25]: 0.143
